How the values were obtained:
[1] = biological target: T1, mouse Izumo1, immobilized AVEXIS bait, Q9D9J7; assay: AVEXIS; conditions: chain shown with the change;; parent: est. 0.51; read off a plot
T1 chain: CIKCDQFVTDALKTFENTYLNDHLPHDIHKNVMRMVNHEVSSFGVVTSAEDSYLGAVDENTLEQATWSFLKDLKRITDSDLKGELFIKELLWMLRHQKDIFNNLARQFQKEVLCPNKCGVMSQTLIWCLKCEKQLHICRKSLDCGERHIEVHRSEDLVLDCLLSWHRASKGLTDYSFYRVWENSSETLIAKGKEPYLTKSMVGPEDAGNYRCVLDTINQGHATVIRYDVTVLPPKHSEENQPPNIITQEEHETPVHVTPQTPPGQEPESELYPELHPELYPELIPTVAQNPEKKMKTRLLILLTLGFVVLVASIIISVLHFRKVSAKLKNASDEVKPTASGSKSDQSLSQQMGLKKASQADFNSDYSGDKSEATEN

[2] = biological target: human Izumo1, immobilized AVEXIS bait, Q8IYV9; assay: AVEXIS; conditions: chain shown with the change;; parent: est. 0.16; read off a plot
Sequence of human Izumo1, immobilized AVEXIS bait, Q8IYV9 (Q8IYV9 22-350): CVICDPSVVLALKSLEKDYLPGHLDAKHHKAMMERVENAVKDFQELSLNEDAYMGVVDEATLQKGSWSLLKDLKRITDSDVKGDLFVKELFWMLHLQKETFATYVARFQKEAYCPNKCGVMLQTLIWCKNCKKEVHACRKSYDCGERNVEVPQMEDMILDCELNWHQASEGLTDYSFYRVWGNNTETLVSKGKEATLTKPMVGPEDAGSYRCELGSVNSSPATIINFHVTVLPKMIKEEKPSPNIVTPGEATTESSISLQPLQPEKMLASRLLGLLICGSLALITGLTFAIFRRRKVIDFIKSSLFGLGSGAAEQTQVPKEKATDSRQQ

B1: mouse Juno, wild type, AVEXIS prey, Q9EQF4 N185S (protein)
chain: GDKLLSVCMNSKRHKQEPGPEDELYQECRPWEDNACCTRSTSWEAHLEEPLLFNFSMMHCGLLTPACRKHFIQAICFHECSPNLGPWIQPVVPNGQEEQRVWGVPLCQEDCEDWWRACHSSLTCKSNWLHGWDWSEEKKHCPAHEPCLPFSYHFPTPDDLCEKIWSNTFKASPERRNSGRCLQKWFEPTLSNPNVEVALHFAG
[1]
  response: 0.5 A 485 nm
[2]
  response: 0.17 A 485 nm
